According to IntAct's records for PubMed 19624469:

B1: Protein phosphatase 2C 16 (Arabidopsis thaliana (Mouse-ear cress)), Q9CAJ0 (parent)
chain: MEEMTPAVAMTLSLAANTMCESSPVEITQLKNVTDAADLLSDSENQSFCNGGTECTMEDVSELEEVGEQDLLKTLSDTRSGSSNVFDEDDVLSVVEDNSAVISEGLLVVDAGSELSLSNTAMEIDNGRVLATAIIVGESSIEQVPTAEVLIAGVNQDTNTSEVVIRLPDENSNHLVKGRSVYELDCIPLWGTVSIQGNRSEMEDAFAVSPHFLKLPIKMLMGDHEGMSPSLTHLTGHFFGVYDGHGGHKVADYCRDRLHFALAEEIERIKDELCKRNTGEGRQVQWDKVFTSCFLTVDGEIEGKIGRAVVGSSDKVLEAVASETVGSTAVVALVCSSHIVVSNCGDSRAVLFRGKEAMPLSVDHKPDREDEYARIENAGGKVIQWQGARVFGVLAMSRSIGDRYLKPYVIPEPEVTFMPRSREDECLILASDGLWDVMNNQEVCEIARRRILMWHKKNGAPPLAERGKGIDPACQAAADYLSMLALQKGSKDNISIIVIDLKAQRKFKTRT
partner: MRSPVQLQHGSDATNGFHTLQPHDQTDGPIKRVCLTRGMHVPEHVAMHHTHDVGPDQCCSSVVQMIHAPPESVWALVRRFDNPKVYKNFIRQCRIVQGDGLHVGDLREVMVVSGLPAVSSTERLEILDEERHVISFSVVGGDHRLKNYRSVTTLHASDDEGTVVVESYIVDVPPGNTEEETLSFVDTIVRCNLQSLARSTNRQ
B2: Protein phosphatase 2C 16 (Arabidopsis thaliana (Mouse-ear cress)), Q9CAJ0 (parent)
chain: B1 chain
partner: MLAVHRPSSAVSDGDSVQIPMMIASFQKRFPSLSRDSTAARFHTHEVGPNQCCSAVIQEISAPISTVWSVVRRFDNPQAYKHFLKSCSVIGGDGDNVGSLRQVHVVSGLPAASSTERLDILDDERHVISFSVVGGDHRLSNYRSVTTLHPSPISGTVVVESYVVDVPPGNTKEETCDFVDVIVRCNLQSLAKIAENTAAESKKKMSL
B3: Protein phosphatase 2C 16 (Arabidopsis thaliana (Mouse-ear cress)), Q9CAJ0 (parent)
chain: B1 chain
partner: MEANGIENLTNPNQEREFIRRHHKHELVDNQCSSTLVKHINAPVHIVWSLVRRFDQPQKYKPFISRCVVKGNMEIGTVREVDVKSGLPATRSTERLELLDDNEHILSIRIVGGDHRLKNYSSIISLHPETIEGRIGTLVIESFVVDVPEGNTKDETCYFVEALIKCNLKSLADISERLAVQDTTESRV
B4: Protein phosphatase 2C 16 (Arabidopsis thaliana (Mouse-ear cress)), Q9CAJ0 (parent)
chain: B1 chain
B5: Protein phosphatase 2C 16 (Arabidopsis thaliana (Mouse-ear cress)), Q9CAJ0 (parent)
chain: B1 chain
partner: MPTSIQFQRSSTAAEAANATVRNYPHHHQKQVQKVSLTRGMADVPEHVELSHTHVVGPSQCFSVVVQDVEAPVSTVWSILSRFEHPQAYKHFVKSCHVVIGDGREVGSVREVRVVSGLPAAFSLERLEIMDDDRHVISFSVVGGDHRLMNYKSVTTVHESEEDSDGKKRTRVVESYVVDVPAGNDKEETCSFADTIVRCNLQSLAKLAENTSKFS

Variants of: B1
Details: with pyl5_arath PYL5, Q9FLB1

Row | effect of a mutation on the interaction | Variant
1 | disrupting interaction | MEEMTPAVAMTLSLAANTMCESSPVEITQLKNVTDAADLLSDSENQSFCNGGTECTMEDVSELEEVGEQDLLKTLSDTRSGSSNVFDEDDVLSVVEDNSAVISEGLLVVDAGSELSLSNTAMEIDNGRVLATAIIVGESSIEQVPTAEVLIAGVNQDTNTSEVVIRLPDENSNHLVKGRSVYELDCIPLWGTVSIQGNRSEMEDAFAVSPHFLKLPIKMLMGDHEGMSPSLTHLTGHFFGVYDGHDGHKVADYCRDRLHFALAEEIERIKDELCKRNTGEGRQVQWDKVFTSCFLTVDGEIEGKIGRAVVGSSDKVLEAVASETVGSTAVVALVCSSHIVVSNCGDSRAVLFRGKEAMPLSVDHKPDREDEYARIENAGGKVIQWQGARVFGVLAMSRSIGDRYLKPYVIPEPEVTFMPRSREDECLILASDGLWDVMNNQEVCEIARRRILMWHKKNGAPPLAERGKGIDPACQAAADYLSMLALQKGSKDNISIIVIDLKAQRKFKTRT [G246D]

Variants of: B2
Details: with pyl4_arath PYL4, O80920

Row | effect of a mutation on the interaction | Variant
2 | disrupting interaction | MEEMTPAVAMTLSLAANTMCESSPVEITQLKNVTDAADLLSDSENQSFCNGGTECTMEDVSELEEVGEQDLLKTLSDTRSGSSNVFDEDDVLSVVEDNSAVISEGLLVVDAGSELSLSNTAMEIDNGRVLATAIIVGESSIEQVPTAEVLIAGVNQDTNTSEVVIRLPDENSNHLVKGRSVYELDCIPLWGTVSIQGNRSEMEDAFAVSPHFLKLPIKMLMGDHEGMSPSLTHLTGHFFGVYDGHDGHKVADYCRDRLHFALAEEIERIKDELCKRNTGEGRQVQWDKVFTSCFLTVDGEIEGKIGRAVVGSSDKVLEAVASETVGSTAVVALVCSSHIVVSNCGDSRAVLFRGKEAMPLSVDHKPDREDEYARIENAGGKVIQWQGARVFGVLAMSRSIGDRYLKPYVIPEPEVTFMPRSREDECLILASDGLWDVMNNQEVCEIARRRILMWHKKNGAPPLAERGKGIDPACQAAADYLSMLALQKGSKDNISIIVIDLKAQRKFKTRT [G246D]

Variants of: B3
Details: with pyl8_arath PYL8, Q9FGM1

Row | effect of a mutation on the interaction | Variant
3 | disrupting interaction | MEEMTPAVAMTLSLAANTMCESSPVEITQLKNVTDAADLLSDSENQSFCNGGTECTMEDVSELEEVGEQDLLKTLSDTRSGSSNVFDEDDVLSVVEDNSAVISEGLLVVDAGSELSLSNTAMEIDNGRVLATAIIVGESSIEQVPTAEVLIAGVNQDTNTSEVVIRLPDENSNHLVKGRSVYELDCIPLWGTVSIQGNRSEMEDAFAVSPHFLKLPIKMLMGDHEGMSPSLTHLTGHFFGVYDGHDGHKVADYCRDRLHFALAEEIERIKDELCKRNTGEGRQVQWDKVFTSCFLTVDGEIEGKIGRAVVGSSDKVLEAVASETVGSTAVVALVCSSHIVVSNCGDSRAVLFRGKEAMPLSVDHKPDREDEYARIENAGGKVIQWQGARVFGVLAMSRSIGDRYLKPYVIPEPEVTFMPRSREDECLILASDGLWDVMNNQEVCEIARRRILMWHKKNGAPPLAERGKGIDPACQAAADYLSMLALQKGSKDNISIIVIDLKAQRKFKTRT [G246D]

Variants of: B4
Details: with pyr1_arath PYR1, O49686

Row | effect of a mutation on the interaction | Variant
4 | disrupting interaction | MEEMTPAVAMTLSLAANTMCESSPVEITQLKNVTDAADLLSDSENQSFCNGGTECTMEDVSELEEVGEQDLLKTLSDTRSGSSNVFDEDDVLSVVEDNSAVISEGLLVVDAGSELSLSNTAMEIDNGRVLATAIIVGESSIEQVPTAEVLIAGVNQDTNTSEVVIRLPDENSNHLVKGRSVYELDCIPLWGTVSIQGNRSEMEDAFAVSPHFLKLPIKMLMGDHEGMSPSLTHLTGHFFGVYDGHDGHKVADYCRDRLHFALAEEIERIKDELCKRNTGEGRQVQWDKVFTSCFLTVDGEIEGKIGRAVVGSSDKVLEAVASETVGSTAVVALVCSSHIVVSNCGDSRAVLFRGKEAMPLSVDHKPDREDEYARIENAGGKVIQWQGARVFGVLAMSRSIGDRYLKPYVIPEPEVTFMPRSREDECLILASDGLWDVMNNQEVCEIARRRILMWHKKNGAPPLAERGKGIDPACQAAADYLSMLALQKGSKDNISIIVIDLKAQRKFKTRT [G246D]

Variants of: B5
Details: with pyl6_arath PYL6, Q8S8E3

Row | effect of a mutation on the interaction | Variant
5 | disrupting interaction | MEEMTPAVAMTLSLAANTMCESSPVEITQLKNVTDAADLLSDSENQSFCNGGTECTMEDVSELEEVGEQDLLKTLSDTRSGSSNVFDEDDVLSVVEDNSAVISEGLLVVDAGSELSLSNTAMEIDNGRVLATAIIVGESSIEQVPTAEVLIAGVNQDTNTSEVVIRLPDENSNHLVKGRSVYELDCIPLWGTVSIQGNRSEMEDAFAVSPHFLKLPIKMLMGDHEGMSPSLTHLTGHFFGVYDGHDGHKVADYCRDRLHFALAEEIERIKDELCKRNTGEGRQVQWDKVFTSCFLTVDGEIEGKIGRAVVGSSDKVLEAVASETVGSTAVVALVCSSHIVVSNCGDSRAVLFRGKEAMPLSVDHKPDREDEYARIENAGGKVIQWQGARVFGVLAMSRSIGDRYLKPYVIPEPEVTFMPRSREDECLILASDGLWDVMNNQEVCEIARRRILMWHKKNGAPPLAERGKGIDPACQAAADYLSMLALQKGSKDNISIIVIDLKAQRKFKTRT [G246D]
